From the nanobody polyreactivity screen of Harvey et al. (2022)

test: yeast display, Sf9 membrane polyspecificity reagent, FACS + sequencing; frameworks hold sequencing errors
In short: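 Genes from sorted yeast were amplified by colony PCR, read by MiSeq 2 × 250 sequencing and filtered on CDR length. These cells carried a synthetic nanobody library in Saccharomyces cerevisiae BJ5465 and were sorted by FACS into low and high (top ~1%) gates on anti-HA and streptavidin fluorescence. Polyreactivity is labelled according to the gate of origin.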

Row | Sequence | polyreactivity (PSR sort gate)
1 | QVQLVESGGRLVQGRGSLRLSCAASGRTFHIYDIGWYRQAPGKERELVAAIRGRSGSTYYADSVKGRFTISRDNAKNNDYLQMNSLTPEDNAVYYCAAENLGRFVASEYDYWGQGTQVTVSS | high polyreactivity
2 | QVQLVESGGSIVQAGGSLRLSCAASGSTFDVYDMGWYRHAPGKERELVAAITTSGGGTYYADSVKGRFTISRDNAKNTGYLQMNSLKPEDTAVYYCAADTWRDGDDYWGQGTQVTVSS | low polyreactivity
3 | QVQLVESGGSLVQAGGSLRLSCAASGFIFIRYAMGWYRQAPGKERELVAAITTSTGRTYYADSVKGRFTISRDNAKNTVYLQMNSLKPEDTAVYYCAAVPWKRYDYYTPFARGYWGQGTQVTVSS | low polyreactivity
4 | QVQLVESGGVFVQAGGSLRLSCAASGSIFPYVNAMGWYRQAPGKEREFVASIPGGGGTKYADSVKGRFTISRDNAKNTVYLQMNSLKAEDTAVYYCNATSGNPASTAWMNYWGQGTQVSVSS | low polyreactivity
5 | QVQLVESGGVIVQAGGSLRLSCAASGFTFQAYAKGWYRQAPGKETELVAAITRSGGRTYYADSVKGRFTISRDNAKNTVYFQMKRLKPEDTAVYYCAKLSDSITLYGYWGQGTQVTVSS | high polyreactivity
6 | QVQLVESGGVLDQAGGSLRLSCAAAGITSPDNVMGWYRKAPGKEFDLVAANSGSGGSTYYADYVQGRFTISRDNAKNSVYLQINILKPEDTAVYYCAADVEYKVFPGDYWGQGTQVTVSS | low polyreactivity
7 | QVQLVESGGVLFQAGGSLRLSCAASGRISYANAIGWYRQAPGKESEMVASITYSAGSTYADSVKGRFTISRDNAKNTVYLQMISLKPEDTAVYYCAKRPCQHYRSYLMDYWGQGTQVNVSS | low polyreactivity
8 | QVQLVESGGVLLQGGGSLRLTWAASGGIFTDYTIRSYRQAPGKERELVADITWTGGSTYYPDSVKGRFTISRDNAKNTVYLQMNSLKPEDTAVYYCAADDYWVNLDYWGQGTQVTVSS | low polyreactivity
9 | QVQLVESGGVLVQAGASLRLSCAASGLTFAVYTMGGYRQAPGKEMELVAAITWDGGITYYADSVKGRFTISRDNAKYTVYLQMNSLKPEDTAVYYCAADYALGEVYWYNYWGQGTQVTVSS | low polyreactivity
10 | QVQLVESGGVLVQAGGSLRISSAASGRIFKVYAMGWYRQAPGKEREFVAVITGGGSTNYADSVKGRFTISRDNAKNTVYLQMNSLKPEDTGVYYCATEGYGHGGETDGGVYSDLGYWGQGTQVTVSS | low polyreactivity
11 | QVQLVESGGVLVQAGGSLRLSCAASGFIFRSNGMGWYRQARGKERELVAVITSSTGSTSYADSVKGRFTISRDNAKNTVYLQMNSLKPEDTAVYSCAADYQFGRGAEPYVFFDPEMDYWGQGTQVTESS | low polyreactivity
12 | QVQLVESGGVLVQAGGSLRLSCAASGFTFGPYAMGWYRPAPGKERELVATIRSGDSTNYADSVKGRFTISRDNAKNTVYLQMNSLKPEDTAVYYCARDARASARRKRYDYGGQGTQVTVSS | low polyreactivity
13 | QVQLVESGGVLVQAGGSLRLSCAASGFTFLAYAMGWYRQAPGKERELVAAINSSDGTTHYADSVKGRFTISRDNAKITVYLQMNSLKPEDTAVYYCAVSQVRTGEGYHYWGQGTQVTVSS | low polyreactivity
14 | QVQLVESGGVLVQAGGSLRLSCAASGIIFGRDTMGWYRQAPGKERELVAAITSSGITYYADSVKGRFTFSRDNAKNCVYLQMNSLKPEDTAVYYCIADYSIPGYYWPYDYWGQCTQVTVSS | low polyreactivity
15 | QVQLVESGGVLVQAGGSLRLSCAASGIIFVYNPMGWYRPAPGKERELVAGISWNGVSTYYADSVKWRFTISRDYAKYTVYLQMNSLKPEDTAVYYCAASLWVYVGQARYLWYDYWGQGTQVTVSS | low polyreactivity
16 | QVQLVESGGVLVQAGGSLRLSCAASGITFGDNAMGWYRQAPGKERELVAAITTSVDSTYYADSVKGRFTISRDNAKNTVYLQMNSLKPEDTAVYYCAVAFVQFTQYDYWGQGTQVTVSS | low polyreactivity
17 | QVQLVESGGVLVQAGGSLRLSCAASGITFIGYAMGWYRQAPGKERELVASITSGANTNYADSVKGRFTISRDNAKNTVYLQMNSVKAEDTAVYYCAAPEHGTYANILGEPLDYWGQGTQVTVSS | low polyreactivity
18 | QVQLVESGGVLVQAGGSLRLSCAASGITFPGYAMGWYRKAPGKERELVAAISAIGGRTYYADSVKGRFTISRYNAKNTVYLQMNSLKPEDTAVYYCNVLPYGGKKPTLFDYWGQGTQVTVSS | high polyreactivity
19 | QVQLVESGGVLVQAGGSLRLSCAASGNIFVPYAMGWYRQAPGKERDLVAAISSRGGRTYYADSVKGRFTISRDNAKNTVYLQMNSLKPEDTAVFYCNKVAKSSVLTLDYWGQGTQVTVSS | high polyreactivity
20 | QVQLVESGGVLVQAGGSLRLSCAASGRIFDDYAMGWYRQAPGKERELVAAIRSGGNSNYADSVKGRFTISRDNAKNTVYLQMNSLTPEETAVYYCAADEVRSAWRCSSPPDYDHWGQGTHVTVSS | low polyreactivity
21 | QVQLVESGGVLVQAGGSLRLSCAASGRIFHYYAMGWYRQAPGKETELVAANSSRRGSTYYADSVKGRFTISRDNAKNNFYLQMNILKAYDTAVYYCNARGWGYWVRFDYWGQGTQVTVSS | high polyreactivity
22 | QVQLVESGGVLVQAGGSLRLSCAASGRIFRNYVMGWYRQAPGKEREMVAAISRSGGSTYYADSVKGRFTISRDNAKNTVYLQMNSLKPEDTAVYYCNAEYASRRVSERDYWGQGTQVTVSS | high polyreactivity
23 | QVQLVESGGVLVQAGGSLRLSCAASGRILFSYGMGWYRQATGKERELVARISWSGGNTHYADSVKGRFTISRDNAKNTVYLQMNSLKPEDTAVYYCNAYYTYWYPRYDYWGQGTQVTVSS | low polyreactivity
24 | QVQLVESGGVLVQAGGSLRLSCAASGRTFLNYTMGWYRQAPRKDIELVAAISTSGGSTNYADSVKGRFTISRDNAKNTVYLQMTSLKPEDTAVYYCAAETSTKPEAYEYWGQGTQVTVSS | low polyreactivity
25 | QVQLVESGGVLVQAGGSLRLSCAASGRTFYGYAMGWNRQAPGKERYLVAAIDIDVGNTYYADSVKGRFTISRDNAKNTVYLQMNSLKPEDTAVYYCAAEIPSWWLPALFRYDYWGQGTQVTVSS | low polyreactivity
26 | QVQLVESGGVLVQAGGSLRLSCAASGRTFYLYAMGWSRQAPGKERELVAAISRSGGITYYADSVKGRFTISRDNAKNTVYLQMNSLKPEDTAVYYCAASRAGGYYGKGYSWGQGTQVTVSS | high polyreactivity
27 | QVQLVESGGVLVQAGGSLRLSCAASGRTFYSYAMGWYRQAPGNERELVAAITSSGGSTYYADSVKGRFTISRDNAKNTVYLQMNRLKPEDTAVYYCAAPRGRHFDYWGQGTQVTVSS | high polyreactivity
28 | QVQLVESGGVLVQAGGSLRLSCAASGRTVTVNAMGWYRQAPGKERELVAAITGRGGNTNYADSLKGRFTISRDNAKNTVYLQMNSQKPEDTAVFYCYARYHGRAKHDYWGQGTQVTVSS | high polyreactivity
29 | QVQLVESGGVLVQAGGSLRLSCAASGSIFWSNAMGWSRQAPGKERELVAAITTSDGSTYYADSVKGRFTISRDHAKNTVYLQMNSLKPEDSAVYYCAADASTWYTEEYWGQGTQVTVSS | low polyreactivity
30 | QVQLVESGGVLVQAGGSLRLSCAASGSIFYSYAMGWYRQAPGKDRELVAAITRSGGSTYYADSVKGRFTISRENAKNTVYVQMHSLKPEDTAGYYCNARGKGDYYWGQGTQVTVSS | high polyreactivity
